In the data set the test system is AvaI restriction endonuclease (recombinant) V1M (start codon GTG changed to ATG) (Anabaena variabilis). In words: cleavage_in_vitro. The conditions noted are these: extract of ER2504 [pLG-BsoBIM, pLysS, pAII17-AvaIR]; lambda DNA digestion; recognition site not given.

bacteriophage lambda DNA: the activity (units/g wet cells) came out at 6.4e+06.
